Laboratory results as given in paper PMC8265735 (Biopolymers, 2021).
Read-outs that look alike come from different tables or passages of the source.

Legend:
SAXS [1] = biological target: the molecule itself; assay: SAXS
SAXS [2] = biological target: the molecule itself; assay: SAXS; remark: listed apart in the source

B1: Hemoglobin III (HbIII) from Lucina pectinata, oxy form (natural protein, Lucina pectinata (Phacoides pectinatus), UniProt P41262 1-153, looked up)
chain: MSSGLTGPQKAALKSSWSRFMDNAVTNGTNFYMDLFKAYPDTLTPFKSLFEDVSFNQMTDHPTMKAQALVFCDGMSSFVDNLDDHEVLVVLLQKMAKLHFNRGIRIKELRDGYGVLLRYLEDHCHVEGSTKNAWEDFIAYICRVQGDFMKERL
- stoichiometry N (SAXS [1]): 2
- stoichiometry N (SAXS [2]): 4
